Experimental data from PMC12137749 (Nature Communications, 2025).
Read-outs that look alike come from different tables or passages of the source.

Columns and labels:
[1] = target: the molecule itself; experiment: cryo-EM structure
[2] = target: the molecule itself

B1: full-length MPXV E5 (mpox virus helicase-primase E5), wild type (enzyme)
chain: MDAAIRGNDVIFVLKTIGVPSACRQNEDPRFVEAFKCDELERYIDNNPECTLFESLRDEEAYSIVRIFMDVDLDACLDEIDYLTAIQDFIIEVSNCVARFAFTECGAIHENVIKSMRSNFSLTKSTNRDKTSFHIIFLDTYTTMDTLIAMKRTLLELSRSSENPLTRSIDTAVYRRKTTLRVVGTRKNPNCDTIHVMQPPHDNIEDYLFTYVDMNNNSYYFSLQRRLEDLVPDKLWEPGFISFEDAIKRVSKIFINSIINFNDLDENNFTTVPLVIDYVTPCALCKKRSHKHPHQLSLENGAIRIYKTGNPHSCKVKIVPLDGNKLFNIAQRILDTNSVLLTERGDHIVWINNSWKFNSEEPLITKLILSIRHQLPKEYSSELLCPRKRKTVEANIRDMLVDSVETDTYPDKLPFKNGVLDLVDGMFYSGDDAKKYTCTVSTGFKFDDTKFVEDSPEMEELMNIINDIQPLTDENKKNRELYEKTLSSCLCGATKGCLTFFFGETATGKSTTKRLLKSAIGDLFVETGQTILTDVLDKGPNPFIANMHLKRSVFCSELPDFACSGSKKIRSDNIKKLTEPCVIGRPCFSNKINNRNHATIIIDTNYKPVFDRIDNALMRRIAVVRFRTHFSQPSGREAAENNDAYDKVKLLDEGLDGKIQNNRYRFAFLYLLVKWYKKYHIPIMKLYPTPEEIPDFAFYLKIGTLLVSSSVKHIPLMTDLSKKGYILYDNVVTLPLTTFQQKISKYFNSRLFGHDIESFINRHKKFANVSDEYLQYIFIEDISSP
stoichiometry N [1]: 12 | stoichiometry N [2]: 6
